Source: patent publication US20180044393A1 (INSERM INSTITUT NATIONAL DE LA SANT ET DE LA RECHERCHE M …, published 2018)

Experiments:
[1] = target: T1, Orexin receptor-1 (human OX1R, wild type) stably expressed in CHO-S cells (human, UniProt O43613 1-425); assay: cell-based or functional assay
T1 sequence: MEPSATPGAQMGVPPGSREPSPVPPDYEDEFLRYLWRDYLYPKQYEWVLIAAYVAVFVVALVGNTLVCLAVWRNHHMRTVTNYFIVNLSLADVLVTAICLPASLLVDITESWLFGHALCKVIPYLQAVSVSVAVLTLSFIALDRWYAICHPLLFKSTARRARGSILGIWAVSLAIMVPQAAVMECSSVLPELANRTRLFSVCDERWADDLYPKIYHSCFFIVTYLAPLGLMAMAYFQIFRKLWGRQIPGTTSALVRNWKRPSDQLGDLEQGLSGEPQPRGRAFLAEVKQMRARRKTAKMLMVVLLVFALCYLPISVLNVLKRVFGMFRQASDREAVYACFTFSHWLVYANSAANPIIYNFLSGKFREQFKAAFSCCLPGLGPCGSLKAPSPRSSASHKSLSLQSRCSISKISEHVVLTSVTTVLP

[2] = target: T1, Orexin receptor-1 (human OX1R, wild …); assay: competitive inhibition of 125I-OxA binding on CHO-S cells expressing human OX1R
Experimental: CHO—S cells expressing recombinant native or mutated OX1R were grown as previously described (El Firar et al., 2009) and maintained at 37° C. in a humidified 5% CO₂/air incubator. ¹²⁵I-orexia-A (74 TBq/mmol) was prepared as previously described (El Firar et al., 2009). […] Free peptides were removed by 2 cell washing cycles with PBS. […] Data were analyzed using the GraphPad software (http://www.graphpad.com).

B1: OxB 7-28 (peptide)
peptide: LQGRLQRLLQASGNHAAGILTM
notes: synthetic deletion mutant of OxB; also called deletion of the first six residues of OxB
[1]
  Apoptosis induction EC50: 2180 nM
  IP3 production EC50: 1510 nM
[2]
  IC50: 388 nM
